Source: PMC6604206, “Cascade synthesis of uridine-5′-diphosphate glucuronic acid by coupling multiple whole cells expressing hyperthermophilic enzymes” (Microbial Cell Factories, 2019)

B1: StUSP (Sulfurisphaera tokodaii str. 7) (protein)
chain: MKAFILAAGSGERLEPITHTRPKAFVPILSKPLIEYQIEYLRKCGIRDITVIVSSKNKEYFEKKLKEISIVTQKDDIKGTGAAILSAKFNDEALIIYGDLFFSNEKEICNIITLKENAIIGVKVSNPKDYGVLVLDNQNNLSKIIEKPEIPPSNLINAGIYKLNSDIFTYLDKISISERGELELTDAINLMAKDHRVKVIEYEGYWMDIGKPWNIIDVNKWALDNLVFSQNLGNVEDNVKIKGKVIIEEDAEIKSGTYIEGPVYIGKGSEIGPNSYLRPYTILVEKNKIGASVEVKESVIMEGSKIPHLSYVGDSVIAEDVNFGAGTLIANLRFDEKEVKVNVKGKRISSGRRKLGAFIGGHVRTGINVTILPGVKIGAYARIYPGAVVNRDVGYGEFFKV

How the values were obtained:
[1] = target: T1, PiUDH (Pyrobaculum islandicum, UniProt A1RUM9); experiment: whole-cell conversion, PAMN-HPLC and ESI-MS of UDP-GlcA; type: cell-based; settings: BL21-PiUDH whole cells, NAD+ varied 0-1.2 mM, 2.3 mM UDP-Glc, sodium phosphate
T1 construct: gene Pisl_1505; N-terminal His6 tag, codon-optimised gene, pET15b, whole E. coli BL21(DE3) cells

[2] = substrate: O=P(O)(O)O[C@H]1O[C@H](CO)[C@@H](O)[C@H](O)[C@H]1O; experiment: purified protein; type: biochemical, Sulfurisphaera tokodaii; settings: 3 mM UTP, 20 mM MgCl2, 50 mM Tris-HCl pH 7.5, 80 °C (also measured at 37 °C)

T1 sequence (A1RUM9 entry or part of it): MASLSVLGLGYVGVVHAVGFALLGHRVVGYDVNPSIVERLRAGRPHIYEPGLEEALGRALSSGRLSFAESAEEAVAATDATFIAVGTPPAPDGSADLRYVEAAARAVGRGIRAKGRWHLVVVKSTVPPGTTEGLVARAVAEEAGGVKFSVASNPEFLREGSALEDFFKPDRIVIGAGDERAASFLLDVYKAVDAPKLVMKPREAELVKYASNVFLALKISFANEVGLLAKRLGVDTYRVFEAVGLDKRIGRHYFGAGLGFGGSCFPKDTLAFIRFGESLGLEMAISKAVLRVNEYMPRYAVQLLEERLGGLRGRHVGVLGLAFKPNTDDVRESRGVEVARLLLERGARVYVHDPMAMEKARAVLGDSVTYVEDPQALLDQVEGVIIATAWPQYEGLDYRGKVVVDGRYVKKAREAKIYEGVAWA

Molecule	whole-cell conversion, PAMN-HPLC and ESI-MS of UDP-GlcA [1]	Km [2]	Vmax [2]
NC(=O)c1ccc[n+]([C@@H]2O[C@H](COP(=O)(O)OP(=O)(O)OC[C@H]3O[C@@H](n4cnc5c(N)ncnc54)[C@H](O)[C@@H]3O)[C@@H](O)[C@H]2O)c1 [NAD^+]	The synthetic efficiency showed a positive correlation with the concentration of NAD^+	–	–
B1	–	1474 ± 225 µM	14500 ± 227 µmol/min/mg
